Results published in patent US10501502B2, “Allophycocyanin alpha-subunit evolved labeling proteins (smURFPs)” (The Regents of the University of California, priority 2016, dated 2019).

How the values were obtained:
[1] = Incorporation rates in vitro of BV on initially chromophore-free smURFP; type: biochemical
Method: EX and EM spectra were obtained using SPEX Fluorolog fluorometer (Horiba). Absorbance spectra were obtained using UV-VIS Spectrophotometer Cary Eclipse (Varian) or UV-2700 (Shimadzu). Quantum yield was determined relative to Cy5. Incorporation rates of BV on 0.5 μM smURFP was performed by addition of smURFP to PBS alone or with 20% fetal bovine serum (FBS) and mixed by pipetting in a quartz cuvette. Chromophore was added last, mixed by pipetting, and fluorescence was recorded using SPEX Fluorolog fluorometer (Horiba). Photobleaching was characterized on bubbles of purified FP or Cy5 within mineral oil using light from a 150 W xenon arc lamp with 100% light through EX/EM=628(40)/680(30) nm for smURFP, TDsmURFP, and Cy5 or EX/EM=665 (45)/725 (50) nm for IFP 1.4 focused with a 40×, 1.2 numerical aperture C-Apochromat oil-immersion lens on a Zeiss Axiovert 200M inverted microscope. Photobleaching times were normalized to reflect an initial illumination intensity producing 1,000 photons per fluorescent molecule per second as previously described^37.

HT1080 tumor xenografts = assay: Fluorescence imaging of HT1080 tumor xenografts in vivo; set-up: species or system mice
Text: HT1080 cells were infected with CMV with smURFP-T2A-mCherry, smURFP-T2A-mCardinal, smURFP, and mCardinal lentiviruses in culture, and expression was verified by fluorescence imaging (FIG. 19a, ≥99% efficiency and FIG. 20a, ≥95% efficiency) using filters described in the previous section. All procedures using mice were approved by UCSD IACUC (#S03172M) and are consistent with the recommendations of the American Veterinary Medical Association. One million HT1080 cells expressing smURFP-T2A-mCherry were injected subcutaneously into the lateral, ventral, and upper right and left quadrant, or smURFP and mCardinal were injected subcutaneously into the lateral, dorsal, and lower right and left quadrant of four 5-week-old athymic nude female mice. Tumors were allowed to grow until ˜0.1-1 cm in diameter (˜2 weeks). Mice were anesthetized with isoflurane (1.5%) at a 2 liter/min flow, injected with ketamine-midazolam (intraperitoneal (IP), 80 mg/kg, 4 mg/kg), placed on a heated pad, and imaged before exogenous BV injection. 250 nmol BV was injected by intravenous (IV) tail vein, and mice were imaged 5, 30, 60, and 120 min after BV injection for smURFP-T2A-mCherry. 250 nmol BV or BVMe2 was injected by intravenous tail vein, and mice were imaged 60 min, 24 h, and 48 h after BV injection for smURFP and mCardinal tumors. Mice were imaged using a Maestro in vivo Imaging System (Cambridge Research & Instrumentation, CRI). FPs were imaged with the following filters: mCherry, EX/EM=590(23)/615LP nm and liquid crystal, 620 nm; mCardinal EX/EM=607(36)645LP nm and liquid crystal, 660 nm; and smURFP EX/EM=620(20)/645LP nm or EX/EM=640(47)/700LP and liquid crystal, 710 nm. […] Tumors were removed, washed 2× in 2 ml DMEM+10% FBS, labeled in 2 ml DMEM+10% FBS+10 μM BV or BVMe2 at 4° C. for 24 h, imaged, labeled in 2 ml DMEM+10% FBS+10 μM BV or BVMe2 at 37° C. for 24 h, and imaged (FIG. 20g).

[2] = 0.5 μM smURFP in PBS + 20% FBS, + 0.1 μM BV
[3] = 0.5 μM smURFP in PBS + 20% FBS, + 0.1 μM BV (pH 9.4)
[4] = 0.5 μM smURFP in PBS + 20% FBS, + 0.1 μM BV + 1 mM DTT
[5] = 0.5 μM smURFP in PBS + 20% FBS, + 1 μM BV
[6] = 0.5 μM smURFP in PBS + 20% FBS, + 1 μM BV (pH 9.4)
[7] = 0.5 μM smURFP in PBS + 20% FBS, + 1 μM BV + 1 mM DTT
[8] = 0.5 μM smURFP in PBS + 20% FBS, + 10 μM BV
[9] = 0.5 μM smURFP in PBS + 20% FBS, + 10 μM BV (pH 9.4)
[10] = 0.5 μM smURFP in PBS + 20% FBS, + 10 μM BV + 1 mM DTT
[11] = 0.5 μM smURFP in PBS + 20% FBS, Avg. 3 Conc.
[12] = 0.5 μM smURFP in PBS + 20% FBS, Avg. 3 Conc. (pH 9.4)
[13] = 0.5 μM smURFP in PBS + 20% FBS, Avg. 3 Conc. + 1 mM DTT
[14] = 0.5 μM smURFP in PBS, + 0.1 μM BV
[15] = 0.5 μM smURFP in PBS, + 0.1 μM BV (pH 8)
[16] = 0.5 μM smURFP in PBS, + 0.1 μM BV + 1 mM DTT
[17] = 0.5 μM smURFP in PBS, + 1 μM BV
[18] = 0.5 μM smURFP in PBS, + 1 μM BV (pH 8)
[19] = 0.5 μM smURFP in PBS, + 1 μM BV + 1 mM DTT
[20] = 0.5 μM smURFP in PBS, + 10 μM BV
[21] = 0.5 μM smURFP in PBS, + 10 μM BV (pH 8)
[22] = 0.5 μM smURFP in PBS, + 10 μM BV + 1 mM DTT
[23] = 0.5 μM smURFP in PBS, Avg. 3 Conc.
[24] = 0.5 μM smURFP in PBS, Avg. 3 Conc. (pH 8)
[25] = 0.5 μM smURFP in PBS, Avg. 3 Conc. + 1 mM DTT

B1: smURFP: small ultra-red fluorescent protein, SEQ ID NO: 13, homodimer, covalently attaches biliverdin (protein)
chain: MKTSEQRVNIATLLTENKKKIVDKASQDLWRRHPDLIAPGGIAFSQRDRALCLRDYGWFLHLITFCLLAGDKGPIESIGLISIREMYNSLGVPVPAMMESIRCLKEASLSLLDEEDANETAPYFDYIIKAMS
modifications: homodimer; biliverdin chromophore; smRUFP Variant Polypeptide
A [1, 2]: 1.1
T50% [1, 2]: 43 min
k [1, 2]: 0.016 min⁻¹
A [1, 3]: 0.95
T50% [1, 3]: 7.1 min
k [1, 3]: 0.097 min⁻¹
A [1, 4]: 0.95
T50% [1, 4]: 30 min
k [1, 4]: 0.023 min⁻¹
A [1, 5]: 1.1
T50% [1, 5]: 58 min
k [1, 5]: 0.012 min⁻¹
A [1, 6]: 0.99
T50% [1, 6]: 16 min
k [1, 6]: 0.043 min⁻¹
A [1, 7]: 0.95
T50% [1, 7]: 32 min
k [1, 7]: 0.022 min⁻¹
A [1, 8]: 1.1
T50% [1, 8]: 46 min
k [1, 8]: 0.015 min⁻¹
A [1, 9]: 0.99
T50% [1, 9]: 11 min
k [1, 9]: 0.063 min⁻¹
A [1, 10]: 0.96
T50% [1, 10]: 16 min
k [1, 10]: 0.043 min⁻¹
A [1, 11]: 1.1
T50% [1, 11]: 50 min
k [1, 11]: 0.014 min⁻¹
A [1, 12]: 0.98
T50% [1, 12]: 11 min
k [1, 12]: 0.066 min⁻¹
A [1, 13]: 0.95
T50% [1, 13]: 24 min
k [1, 13]: 0.029 min⁻¹
A [1, 14]: 1.1
T50% [1, 14]: 29 min
k [1, 14]: 0.024 min⁻¹
A [1, 15]: 1.1
T50% [1, 15]: 24 min
k [1, 15]: 0.029 min⁻¹
A [1, 16]: 1.1
T50% [1, 16]: 58 min
k [1, 16]: 0.012 min⁻¹
A [1, 17]: 1.1
T50% [1, 17]: 46 min
k [1, 17]: 0.015 min⁻¹
A [1, 18]: 1.1
T50% [1, 18]: 24 min
k [1, 18]: 0.029 min⁻¹
A [1, 19]: 1.1
T50% [1, 19]: 63 min
k [1, 19]: 0.011 min⁻¹
A [1, 20]: 1.1
T50% [1, 20]: 46 min
k [1, 20]: 0.015 min⁻¹
A [1, 21]: 1.1
T50% [1, 21]: 22 min
k [1, 21]: 0.032 min⁻¹
A [1, 22]: 1.1
T50% [1, 22]: 46 min
k [1, 22]: 0.015 min⁻¹
A [1, 23]: 1.0
T50% [1, 23]: 39 min
k [1, 23]: 0.018 min⁻¹
A [1, 24]: 1.1
T50% [1, 24]: 2 min
k [1, 24]: 0.030 min⁻¹
A [1, 25]: 1.1
T50% [1, 25]: 53 min
k [1, 25]: 0.013 min⁻¹
chromophore maturation or attachment t50% ([1]; BV attachment): 39^ min
fluorescence change after 250 nmol BV intravenously (HT1080 tumor xenografts; after 2 h): no increase in fluorescence
fold dimmer than mCardinal in vivo (HT1080 tumor xenografts; at 607 nm): ~7.3 fold
fold dimmer than mCardinal in vivo (HT1080 tumor xenografts; at 640 nm): ~4 fold
fluorescence of excised tumors with 10 μM BV or BVMe2 (HT1080 tumor xenografts; ex vivo): enhanced fluorescence
fluorescence in tumor xenografts without exogenous BV (HT1080 tumor xenografts; mouse, in vivo): visible without exogenous BV
loss of fluorescence through the skin (HT1080 tumor xenografts; mouse, in vivo): 25%
fluorescence change after injection of 250 nmol BV or BVMe2 (HT1080 tumor xenografts; smURFP vs mCardinal tumors): no increase in fluorescence in vivo
fluorescence intensity relative to mCherry in vivo (HT1080 tumor xenografts; without exogenous BV): 35%
